Patent publication US20150166606A1 (RA PHARMACEUTICALS, published 2015)
Numbered stars: 1 amine (or outer) side, 2 acyl side, 3 side chain; on linkers, the order of the positions; unused ones are H or OH. Bridge positions count the residues as written; N and C are the ends. Square brackets hold non-standard residues; d marks the D form. Ends that are not written are not given here. * marks the point of attachment. mXylyl = xylyl linker from dibromoxylene joining the two cysteines; des‑NH2 = missing amino-terminal amine group; Gly(octyl) = CCCCCCCC[C@H](N)C(=O)O; Gly(cPent) = N[C@H](C(=O)O)C1CCCC1; pXylylene = c1cc(C[*:2])ccc1C[*:1]; Gly(cPr) = N[C@H](C(=O)O)C1CC1; dPhg = N[C@@H](C(=O)O)c1ccccc1; Chg = N[C@H](C(=O)O)C1CCCCC1; Phg = N[C@H](C(=O)O)c1ccccc1; Tle = CC(C)(C)[C@H](N)C(=O)O; Tranexamic = tranexamic acid; NMeV = CN[C@H](C(=O)O)C(C)C; oXylyl = ortho-xylyl linker; NMeS = CN[C@@H](CO)C(=O)O; azaTrp = not defined here; Heptanoyl = CCCCCCC(=O)*; Nle = CCCC[C@H](N)C(=O)O; Nva = CCC[C@H](N)C(=O)O; Thp = NC1(C(=O)O)CCOCC1; Ac4c = NC1(C(=O)O)CCC1; Ac3c = NC1(C(=O)O)CC1; Aib = CC(C)(N)C(=O)O; Mpa = O=C(O)CCS

Molecular target: Activated human plasma kallikrein (Enzyme Research Laboratories, HPKa 1303) (human, UniProt P03952 20-638)
Experiment: cell-based or functional assay

Activated human plasma kallikrein (Enzyme Research Laboratories, HPKa 1303), sequence (P03952 20-638 limits assumed): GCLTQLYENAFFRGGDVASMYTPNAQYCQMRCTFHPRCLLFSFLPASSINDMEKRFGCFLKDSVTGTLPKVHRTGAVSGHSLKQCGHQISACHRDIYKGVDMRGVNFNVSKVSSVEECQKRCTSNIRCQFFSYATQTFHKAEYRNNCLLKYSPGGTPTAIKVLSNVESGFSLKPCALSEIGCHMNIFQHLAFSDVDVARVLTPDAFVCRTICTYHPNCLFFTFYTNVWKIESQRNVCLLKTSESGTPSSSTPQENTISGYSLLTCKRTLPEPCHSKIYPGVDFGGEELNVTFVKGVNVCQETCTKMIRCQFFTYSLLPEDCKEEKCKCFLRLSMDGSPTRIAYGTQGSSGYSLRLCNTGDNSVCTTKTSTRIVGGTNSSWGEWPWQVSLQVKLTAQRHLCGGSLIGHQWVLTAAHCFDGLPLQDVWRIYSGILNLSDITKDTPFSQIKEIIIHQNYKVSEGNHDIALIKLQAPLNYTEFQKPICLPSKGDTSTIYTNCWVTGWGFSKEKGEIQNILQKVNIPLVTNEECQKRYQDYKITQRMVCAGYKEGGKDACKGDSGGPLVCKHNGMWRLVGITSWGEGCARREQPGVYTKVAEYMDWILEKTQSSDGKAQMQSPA

Row | Binder | Avg. IC50
1 | {des‑NH2}-C[Thp]A[dPhg]CR[Tle]-NH2 (linker 1-5 via mXylyl) [R2094] | 0.0469 µM
2 | MCESICRELRYSE-NH2 (linker 2-6 via mXylyl) [R2086] | 8.93 µM
3 | CESICRV-NH2 (linker 1-5 via mXylyl) [R2085] | 0.0219 µM
4 | Heptanoyl-CAS[dPhg]CR[Tle]-NH2 (linker 1-5 via mXylyl; not fully specified (residue 2); printed as [mXylyl(1,5)]Heptanoyl-C-a-S-(D)Phg-C-R-Tbg-NH2) [R2066] | 4.37 µM
5 | [Mpa][code a]A[Phg]CR[Tle]-NH2 (linker 1-5 via mXylyl) [R2079] | 0.0178 µM
6 | [Mpa][code a]S[Chg]CR[Tle]-NH2 (linker 1-5 via mXylyl) [R2082] | 0.0258 µM
7 | Heptanoyl-CA[NMeS][Phg]CR[Tle]-NH2 (linker 1-5 via mXylyl; not fully specified (residue 2); printed as [mXylyl(1,5)]Heptanoyl-C-a-nMeS-Phg-C-R-Tbg-NH2) [R2068] | 0.0268 µM
8 | [Nva]CESICRV-NH2 (linker 2-6 via mXylyl) [R2009] | 0.0086 µM
9 | {des‑NH2}-CAA[Phg]CR[Tle]-NH2 (linker 1-5 via mXylyl; not fully specified (residue 1); printed as [mXylyl(1,5)](des-NH2)C-AA-Phg-CR-Tbg-NH2) [R2075] | 0.0026 µM
10 | MCESICRE-NH2 (linker 2-6 via mXylyl) [R2087] | > 16.6 µM
11 | {des‑NH2}-C[Ac4c]A[dPhg]CR[Tle]-NH2 (linker 1-5 via mXylyl) [R2096] | 0.748 µM
12 | Ac-MCESICRV-NH2 (linker 2-6 via mXylyl) [R2008] | 0.0102 µM
13 | Ac-C[Nle]S[Phg]CR[Tle]-NH2 (linker 1-5 via mXylyl) [R2065] | 0.0061 µM
14 | MCES[Gly(cPent)]CRV-NH2 (linker 2-6 via mXylyl) [R2077] | 0.0197 µM
15 | {des‑NH2}-C[Tranexamic][dPhg]CR[Tle]-NH2 (linker 1-4 via mXylyl (inferred); not fully specified; printed as [mXylyl(1,5)](des-NH2)C-Tranexamic-(D)Phg-CR-Tbg-NH2) [R2081] | > 10 µM
16 | {des‑NH2}-C[Tranexamic][Phg]CR[Tle]-NH2 (linker 1-4 via mXylyl (inferred); not fully specified; printed as [mXylyl(1,5)](des-NH2)C-Tranexamic-Phg-CR-Tbg-NH2) [R2090] | 1.75 µM
17 | {des‑NH2}-C[Ac3c]A[Phg]CR[Tle]-NH2 (linker 1-5 via mXylyl) [R2093] | 0.0103 µM
18 | Ac-CAS[Gly(cPr)]CRV-NH2 (linker 1-5 via mXylyl; not fully specified (residue 2); printed as [mXylyl(1,5)]Ac-C-a-S-Cppg-CRV-NH2) [R2062] | 2.47 µM
19 | Ac-C[dA]S[dPhg]CR[Tle]-NH2 (linker 1-5 via mXylyl) [R2060] | 0.959 µM
20 | Heptanoyl-CA[NMeS][dPhg]CR[Tle]-NH2 (linker 1-5 via mXylyl; not fully specified (residue 2); printed as [mXylyl(1,5)]Heptanoyl-C-a-nMeS-(D)Phg-C-R-Tbg-NH2) [R2069] | 0.903 µM
21 | Ac-CASFCR[Tle]-NH2 (linker 1-5 via mXylyl) [R2059] | 0.425 µM

Row | Binder | Avg. IC50
22 | Ac-CAS[Phg]CR[Gly(cPr)]-NH2 (linker 1-5 via mXylyl; not fully specified (residue 2); printed as [mXylyl(1,5)]Ac-C-a-S-Phg-CR-Cppg-NH2) [R2070] | 0.118 µM
23 | {des‑NH2}-C[Phg]CR[Tle]-NH2 (linker 1-3 via pXylylene; not fully specified (residue 1); printed as [pXylyl(1,5)](des-NH2)C-Phg-CR-Tbg-NH2) [R2084] | 1.8 µM
24 | {des‑NH2}-C[Phg]CR[Tle]-NH2 (linker 1-3 via oXylyl; not fully specified (residue 1); printed as [oXylyl(1,5)](des-NH2)C-Phg-CR-Tbg-NH2) [R2083] | > 8.9 µM
25 | MCEYICRV-NH2 (linker 2-6 via mXylyl) [R2089] | 0.0619 µM
26 | MCESICR[NMeV]-NH2 (linker 2-6 via mXylyl) [R2074] | 11.6 µM
27 | Ac-CAP[Phg]CR[Tle]-NH2 (linker 1-5 via mXylyl) [R2058] | 0.0295 µM
28 | {des‑NH2}-C[Gly(octyl)]S[Phg]CR[Tle]-NH2 (linker 1-5 via mXylyl; not fully specified (residue 1); printed as [mXylyl(1,5)](des-NH2)C-OctG-S-Phg-CR-Tbg-NH2) [R2073] | 0.0186 µM
29 | {des‑NH2}-C[Aib]A[Phg]CR[Tle]-NH2 (linker 1-5 via mXylyl) [R2078] | 0.0028 µM
30 | Ac-CASVCRV-NH2 (linker 1-5 via mXylyl; not fully specified (residue 2); printed as [mXylyl(1,5)]Ac-C-a-SVCRV-NH2) [R2063] | 0.151 µM
31 | {des‑NH2}-C[Aib]A[Chg]CR[Tle]-NH2 (linker 1-5 via mXylyl) [R2091] | 0.0032 µM
32 | [Mpa][code a]S[Phg]C[azaTrp][Tle]-NH2 (linker 1-5 via mXylyl; reading uncertain; also: printed as [mXylyl(1,5)](des-NH2)C-a-S-Phg-C-azaTrp-Tbg-NH2) [R2080] | 13.2 µM
33 | MCESICRV-NH2 (cysteine pairing not given here) [R2007] | 2 µM
34 | Heptanoyl-CAS[Phg]CR[Tle]-NH2 (linker 1-5 via mXylyl; not fully specified (residue 2); printed as [mXylyl(1,5)]Heptanoyl-C-a-S-Phg-C-R-Tbg-NH2) [R2067] | 0.0191 µM
35 | [Mpa][code a]S[Phg]CR[Tle]-NH2 (linker 1-5 via mXylyl) [R2064] | 0.0149 µM
36 | {des‑NH2}-CGA[Phg]CR[Tle]-NH2 (linker 1-5 via mXylyl; not fully specified (residue 1); printed as [mXylyl(1,5)](des-NH2)C-GA-Phg-CR-Tbg-NH2) [R2076] | 0.0114 µM
37 | {des‑NH2}-CAAICRV-NH2 (linker 1-5 via mXylyl; not fully specified (residue 1); printed as [mXylyl(1,5)](des-NH2)C-AAICRV-NH2) [R2072] | 0.013 µM
38 | Ac-CAS[Phg]CR[Chg]-NH2 (linker 1-5 via mXylyl; not fully specified (residue 2); printed as [mXylyl(1,5)]Ac-C-a-S-Phg-CR-Chg-NH2) [R2071] | 1.92 µM
39 | Ac-CAS[Phg]CR[Tle]-NH2 (linker 1-5 via mXylyl; not fully specified (residue 2); printed as [mXylyl(1,5)]Ac-C-a-S-Phg-CR-Tbg-NH2) [R2061] | 0.0127 µM
40 | {des‑NH2}-C[Thp]A[Phg]CR[Tle]-NH2 (linker 1-5 via mXylyl) [R2095] | 0.0016 µM
41 | {des‑NH2}-C[Ac3c]A[dPhg]CR[Tle]-NH2 (linker 1-5 via mXylyl) [R2092] | 3.96 µM
42 | MCESNCRV-NH2 (linker 2-6 via mXylyl) [R2088] | 2.04 µM
